From the supplement of paper PMC7877785
± gives the uncertainty stated by the source.

Assay: self-splicing fitness, log relative to wild type (ln ratio); higher = more splicing; Tetrahymena group I intron in knt gene, E. coli kanamycin selection, DiMSum; sequences stand for … in CUCUCU…GGAGGGAAAAGUUAUCAGGCAUGCACCUGGUAGCUAGUCUUUAAACCAAUAGAUUGCAUCGGUUUAAAAGGCAAGACCGUCAAAUUGCGGGAAAGGGGUCAACAGCCGUUCAGUACCAAGUCUCAGGGGAAACUUUGAGAUGGCCUUGCAAAGGGUAUGGUAAUAAGCUGACGGACAUGGUCCUAACCACGCAGCCAAGUCCUAAGUCAACAGAUCUUCUGUUGAUAUGGAUGCAGUUCACAGACUAAAUGUCGGUCGGGGAAGAUGUAUUCUUCUCAUAAGAUAUAGUCGGACCUCUCCUUAAUGGGAGCUAGCGGAUGAAGUGAUGCAACACUGGAGCCGCUGGGAACUAAUUUGUAUGCGAAAGUAUAUUGAUUAGUUUUGGAGUACUCGUGGUCG
Method in brief: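 Library with all eight P1ex-region intron nucleotides randomised, intron inside the knt kanamycin-resistance gene on pET-22b(+), in E. coli BL21(DE3). Cells grew overnight at 37°C or 30°C on LB agar with or without 25 μg/mL kanamycin (plus 100 μg/mL carbenicillin, 50 μM IPTG, 0.2% rhamnose), in six replicate transformations. Pooled colonies were amplicon-sequenced on Illumina HiSeq 2500. DiMSum fitness is the error-weighted combination of wild-type-normalised replicate fold changes, kanamycin versus none.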

Sequence | self-splicing fitness (ln) (30 °C) | self-splicing fitness (ln) (37 °C)
CGAAAGCAAUAUUACGAUCG | -3.41 ± 0.43 | -1.34 ± 0.29
CGAAAGCAAUAUUACGCACU | -0.573 ± 0.11 | 0.0275 ± 0.13
CGAAAGCAAUAUUACGCGAC | -2.36 ± 0.19 | -3.26 ± 0.25
CGAAAGCAAUAUUACGCGAU | -2.86 ± 0.21 | -2.15 ± 0.34
CGAAAGCAAUAUUACGCGGU | -2.88 ± 0.17 | -2.41 ± 0.18
CGAAAGCAAUAUUACGCGUA | -2.68 ± 0.19 | -1.95 ± 0.18
CGAAAGCAAUAUUACGCUGC | -3.68 ± 0.23 | -2.69 ± 0.19
CGAAAGCAAUAUUACGGAUG | -0.462 ± 0.066 | -0.00232 ± 0.091
CGAAAGCAAUAUUACGGCCG | -1.64 ± 0.14 | -0.462 ± 0.21
CGAAAGCAAUAUUACGGGCG | -0.207 ± 0.098 | -0.157 ± 0.13
CGAAAGCAAUAUUACGGUCU | -0.258 ± 0.071 | -0.209 ± 0.089
CGAAAGCAAUAUUACGUAAG | -0.262 ± 0.049 | -0.000374 ± 0.07
CGAAAGCAAUAUUACGUUGU | -3.63 ± 0.15 | -2.7 ± 0.15
CGAAAGCAAUAUUACGUUUG | -2.33 ± 0.12 | -1.74 ± 0.14
CGAAAGCAAUAUUACGUUUU | -4.51 ± 0.24 | -2.31 ± 0.18
CGACAGCAAUAUUACGAAAG | -1.22 ± 0.13 | -0.409 ± 0.17
CGACAGCAAUAUUACGAAUA | -2.16 ± 0.18 | -3.12 ± 0.3
CGACAGCAAUAUUACGAUCC | -0.0657 ± 0.16 | -0.196 ± 0.19
CGACAGCAAUAUUACGAUGC | -3.57 ± 0.17 | -1.92 ± 0.18
CGACAGCAAUAUUACGCAAU | -4.5 ± 0.33 | -2.81 ± 0.22
CGACAGCAAUAUUACGCACC | -0.97 ± 0.21 | -1.79 ± 0.21
CGACAGCAAUAUUACGCACU | -1.22 ± 0.09 | 0.0742 ± 0.12
CGACAGCAAUAUUACGCAGA | -2.61 ± 0.1 | -2.06 ± 0.1
CGACAGCAAUAUUACGCCCA | -1.56 ± 0.11 | -0.725 ± 0.11
CGACAGCAAUAUUACGCCCG | 0.138 ± 0.24 | 
CGACAGCAAUAUUACGCCUC | -2.24 ± 0.2 | -0.498 ± 0.2

Sequence | self-splicing fitness (ln) (30 °C) | self-splicing fitness (ln) (37 °C)
CGACAGCAAUAUUACGCCUU | -2.4 ± 0.22 | -1.61 ± 0.23
CGACAGCAAUAUUACGCUGA | -3.49 ± 0.28 | -2.66 ± 0.28
CGACAGCAAUAUUACGCUGU | -3.04 ± 0.14 | -2.55 ± 0.15
CGACAGCAAUAUUACGGACC | -2.09 ± 0.083 | -0.0291 ± 0.11
CGACAGCAAUAUUACGGGAA | -3.44 ± 0.17 | -1.92 ± 0.099
CGACAGCAAUAUUACGGUGC | -3.61 ± 0.26 | -2.53 ± 0.16
CGACAGCAAUAUUACGUAAG | -0.425 ± 0.08 | 0.126 ± 0.095
CGACAGCAAUAUUACGUGGA | -3.38 ± 0.17 | -3.17 ± 0.18
CGACAGCAAUAUUACGUGUU | -2.38 ± 0.086 | -3.04 ± 0.17
CGAGAGCAAUAUUACGAAAA |  | -2.18 ± 0.37
CGAGAGCAAUAUUACGAAUC | -2.29 ± 0.27 | 
CGAGAGCAAUAUUACGACAA | -1.65 ± 0.39 | 
CGAGAGCAAUAUUACGACUA | -2.56 ± 0.46 | 
CGAGAGCAAUAUUACGCAAC | -1.2 ± 0.34 | -2.34 ± 0.35
CGAGAGCAAUAUUACGCAGU | -1.96 ± 0.41 | -2.21 ± 0.47
CGAGAGCAAUAUUACGCCCA |  | -0.872 ± 0.36
CGAGAGCAAUAUUACGCCUA | -2.4 ± 0.36 | -0.235 ± 0.38
CGAGAGCAAUAUUACGCGUG | -1.48 ± 0.13 | -2.95 ± 0.23
CGAGAGCAAUAUUACGCUAC |  | -2.11 ± 0.4
CGAGAGCAAUAUUACGGACG | -1.25 ± 0.23 | -0.913 ± 0.42
CGAGAGCAAUAUUACGGAUU | -2.72 ± 0.39 | 
CGAGAGCAAUAUUACGGCGC | -2.76 ± 0.21 | -1.62 ± 0.21
CGAGAGCAAUAUUACGGGCG | -2.3 ± 0.14 | -1.39 ± 0.18
CGAGAGCAAUAUUACGGGUC |  | -0.826 ± 0.23
CGAGAGCAAUAUUACGUAGA | -1.62 ± 0.2 | -1.68 ± 0.3
CGAGAGCAAUAUUACGUCCU | -2.98 ± 0.39 | 

Sequence | self-splicing fitness (ln) (30 °C) | self-splicing fitness (ln) (37 °C)
CGAGAGCAAUAUUACGUUAG | -4.23 ± 0.36 | -2.24 ± 0.29
CGAGAGCAAUAUUACGUUUU | -3.09 ± 0.24 | -2.79 ± 0.25
CGAUAGCAAUAUUACGAAAG | -0.907 ± 0.089 | -0.699 ± 0.12
CGAUAGCAAUAUUACGAUAC |  | -2.88 ± 0.41
CGAUAGCAAUAUUACGCCAC | -2.44 ± 0.44 | -0.944 ± 0.43
CGAUAGCAAUAUUACGCCCG | -1.39 ± 0.18 | -1.44 ± 0.25
CGAUAGCAAUAUUACGCCGG | -0.546 ± 0.11 | -0.0292 ± 0.14
CGAUAGCAAUAUUACGCCUA | -2.11 ± 0.22 | -1.38 ± 0.18
CGAUAGCAAUAUUACGCGCA | -0.97 ± 0.12 | -0.529 ± 0.12
CGAUAGCAAUAUUACGGAAA | -3.34 ± 0.24 | -1.53 ± 0.21
CGAUAGCAAUAUUACGGACA | -2.4 ± 0.28 | -0.977 ± 0.16
CGAUAGCAAUAUUACGGCAA | -2.65 ± 0.27 | -1.79 ± 0.22
CGAUAGCAAUAUUACGGGGC | -3.2 ± 0.35 | -2.56 ± 0.39
CGAUAGCAAUAUUACGGGUU | -3.84 ± 0.21 | -3.04 ± 0.24
CGAUAGCAAUAUUACGUAAC | -2.84 ± 0.17 | -3.84 ± 0.46
CGAUAGCAAUAUUACGUAAG | -0.163 ± 0.066 | 0.259 ± 0.082
CGAUAGCAAUAUUACGUCCA | -1.86 ± 0.15 | -0.237 ± 0.16
CGAUAGCAAUAUUACGUCGA | -3.77 ± 0.25 | -1.15 ± 0.12
CGAUAGCAAUAUUACGUCGC | -3 ± 0.15 | -2.79 ± 0.21
CGAUAGCAAUAUUACGUCUG | 0.295 ± 0.061 | 0.0438 ± 0.072
CGAUAGCAAUAUUACGUGGA | -1.9 ± 0.24 | -2.62 ± 0.31
CGAUAGCAAUAUUACGUGUG | -0.978 ± 0.057 | -0.336 ± 0.07
CGAUAGCAAUAUUACGUUGA | -2.74 ± 0.18 | -1.3 ± 0.14
CGAUAGCAAUAUUACGUUGG | -1.62 ± 0.091 | -0.0971 ± 0.086
CGCAAGCAAUAUUACGAAAA | -2.47 ± 0.38 | -2.96 ± 0.4
CGCAAGCAAUAUUACGAAGG | -1.28 ± 0.098 | -0.75 ± 0.15
